Test results: the supplement of paper PMC5998384

Legend:
HeLa Kyoto [1] = experiment: melting temperature (median over replicates), in situ; higher = more thermally stable
HeLa Kyoto [2] = experiment: solubility in G1/S (NP-40 vs SDS abundance) (log2 ratio); higher = more soluble; settings: cell cycle stage: G1/S
HeLa Kyoto [3] = experiment: solubility change mitosis vs G1/S (difference of NP-40 vs SDS log2 ratios) (log2 ratio difference); higher = more soluble in mitosis
HeLa Kyoto [4] = experiment: thermal stability score vs G1/S (z-score of summed log2 fold changes over temperatures); higher = more thermally stable than in G1/S
[5] = cell cycle stage: early G1 (4.5 h after nocodazole release)
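For melting temperature (median over replicates), in situ in this document: HeLa Kyoto cells synchronized by double thymidine or nocodazole block, proteins quantified by TMT10plex mass spectrometry, three independent biological replicates.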
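For solubility change mitosis vs G1/S (difference of NP-40 vs SDS log2 ratios) in this document: synchronized HeLa Kyoto cells (double thymidine block for G1/S, nocodazole release for mitosis), protein amounts in NP-40 versus SDS lysates quantified by mass spectrometry, three biological replicates.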
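For solubility in G1/S (NP-40 vs SDS abundance) in this document: HeLa Kyoto cells arrested at G1/S by double thymidine block, proteins quantified by TMT10plex mass spectrometry in mild NP-40 versus SDS extracts, three biological replicates.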
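For thermal stability score vs G1/S (z-score of summed log2 fold changes over temperatures) in this document: synchronized HeLa Kyoto cells, proteins quantified by TMT10plex mass spectrometry, three biological replicates, mitosis taken 0.5 h after nocodazole release, G1/S directly after double thymidine block.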

Row | Substance | melting temperature (HeLa Kyoto [1]; cell cycle stage: G1/S) | melting temperature (HeLa Kyoto [1]; cell cycle stage: mitosis) | solubility in G1/S (log2) (HeLa Kyoto [2]) | solubility change mitosis (log2) (HeLa Kyoto [3]) | thermal stability score (HeLa Kyoto [4]; [5]) | thermal stability score (HeLa Kyoto [4]; cell cycle stage: mitosis)
1 | MVRGRISRLSVRDVRFPTSLGGHGADAMHTDPDYSAAYVVIETDAEDGIKGCGITFTLGKGTEVVVCAVNALAHHVLNKDLKDIVGDFRGFYRQLTSDGQLRWIGPEKGVVHLATAAVLNAVWDLWAKQEGKPVWKLLVDMDPRMLVSCIDFRYITDVLTEEDALEILQKGQIGKKEREKQMLAQGYPAYTTSCAWLGYSDDTLKQLCAQALKDGWTRFKVKVGADLQDDMRRCQIIRDMIGPEKTLMMDANQRWDVPEAVEWMSKLAKFKPLWIEEPTSPDDILGHATISKALVPLGIGIATGEQCHNRVIFKQLLQAKALQFLQIDSCRLGSVNENLSVLLMAKKFEIPVCPHAGGVGLCELVQHLIIFDYISVSASLENRVCEYVDHLHEHFKYPVMIQRASYMPPKDPGYSTEMKEESVKKHQYPDGEVWKKLLPAQEN [ENOSF1] | 54.7 °C | 55.1 °C | 0.0883 | -0.108 | -0.19 | -1.12
2 | MAEPQPPSGGLTDEAALSCCSDADPSTKDFLLQQTMLRVKDPKKSLDFYTRVLGMTLIQKCDFPIMKFSLYFLAYEDKNDIPKEKDEKIAWALSRKATLELTHNWGTEDDETQSYHNGNSDPRGFGHIGIAVPDVYSACKRFEELGVKFVKKPDDGKMKGLAFIQDPDGYWIEILNPNKMATLM [GLO1] | 55.8 °C | 54.5 °C | 0.117 | 0.168 | -0.959 | -4.08
3 | MALLAMHSWRWAAAAAAFEKRRHSAILIRPLVSVSGSGPQWRPHQLGALGTARAYQIPESLKSITWQRLGKGNSGQFLDAAKALQVWPLIEKRTCWHGHAGGGLHTDPKEGLKDVDTRKIIKAMLSYVWPKDRPDLRARVAISLGFLGGAKAMNIVVPFMFKYAVDSLNQMSGNMLNLSDAPNTVATMATAVLIGYGVSRAGAAFFNEVRNAVFGKVAQNSIRRIAKNVFLHLHNLDLGFHLSRQTGALSKAIDRGTRGISFVLSALVFNLLPIMFEVMLVSGVLYYKCGAQFALVTLGTLGTYTAFTVAVTRWRTRFRIEMNKADNDAGNAAIDSLLNYETVKYFNNERYEAQRYDGFLKTYETASLKSTSTLAMLNFGQSAIFSVGLTAIMVLASQGIVAGTLTVGDLVMVNGLLFQLSLPLNFLGTVYRETRQALIDMNTLFTLLKVDTQIKDKVMASPLQITPQTATVAFDNVHFEYIEGQKVLSGISFEVPAGKKVAIVGGSGSGKSTIVRLLFRFYEPQKGSIYLAGQNIQDVSLESLRRAVGVVPQDAVLFHNTIYYNLLYGNISASPEEVYAVAKLAGLHDAILRMPHGYDTQVGERGLKLSGGEKQRVAIARAILKDPPVILYDEATSSLDSITEETILGAMKDVVKHRTSIFIAHRLSTVVDADEIIVLDQGKVAERGTHHGLLANPHSIYSEMWHTQSSRVQNHDNPKWEAKKENISKEEERKKLQEEIVNSVKGCGNCSC [ABCB7] | 52.5 °C | 51.6 °C | -0.121 | -0.12 | -0.909 | -1.83
4 | MFSRAGVAGLSAWTLQPQWIQVRNMATLKDITRRLKSIKNIQKITKSMKMVAAAKYARAERELKPARIYGLGSLALYEKADIKGPEDKKKHLLIGVSSDRGLCGAIHSSIAKQMKSEVATLTAAGKEVMLVGIGDKIRGILYRTHSDQFLVAFKEVGRKPPTFGDASVIALELLNSGYEFDEGSIIFNKFRSVISYKTEEKPIFSLNTVASADSMSIYDDIDADVLQNYQEYNLANIIYYSLKESTTSEQSARMTAMDNASKNASEMIDKLTLTFNRTRQAVITKELIEIISGAAALD [ATP5C1] | 58 °C | 56.5 °C | 0.283 | -0.0222 | -0.727 | -0.47
5 | MLRSGPASGPSVPTGRAMPSRRVARPPAAPELGALGSPDLSSLSLAVSRSTDELEIIDEYIKENGFGLDGGQPGPGEGLPRLVSRGAASLSTVTLGPVAPPATPPPWGCPLGRLVSPAPGPGPQPHLVITEQPKQRGMRFRYECEGRSAGSILGESSTEASKTLPAIELRDCGGLREVEVTACLVWKDWPHRVHPHSLVGKDCTDGICRVRLRPHVSPRHSFNNLGIQCVRKKEIEAAIERKIQLGIDPYNAGSLKNHQEVDMNVVRICFQASYRDQQGQMRRMDPVLSEPVYDKKSTNTSELRICRINKESGPCTGGEELYLLCDKVQKEDISVVFSRASWEGRADFSQADVHRQIAIVFKTPPYEDLEIVEPVTVNVFLQRLTDGVCSEPLPFTYLPRDHDSYGVDKKRKRGMPDVLGELNSSDPHGIESKRRKKKPAILDHFLPNHGSGPFLPPSALLPDPDFFSGTVSLPGLEPPGGPDLLDDGFAYDPTAPTLFTMLDLLPPAPPHASAVVCSGGAGAVVGETPGPEPLTLDSYQAPGPGDGGTASLVGSNMFPNHYREAAFGGGLLSPGPEAT [RELB] |  | 50.1 °C | -0.0253 | -0.12 | 0.0562 | 0.606
6 | MAAGDGDVKLGTLGSGSESSNDGGSESPGDAGAAAEGGGWAAAALALLTGGGEMLLNVALVALVLLGAYRLWVRWGRRGLGAGAGAGEESPATSLPRMKKRDFSLEQLRQYDGSRNPRILLAVNGKVFDVTKGSKFYGPAGPYGIFAGRDASRGLATFCLDKDALRDEYDDLSDLNAVQMESVREWEMQFKEKYDYVGRLLKPGEEPSEYTDEEDTKDHNKQD [PGRMC2] | 52.3 °C | 53.9 °C | 0.236 | -0.00423 | -0.577 | 0.992
7 | MLCVGRLGGLGARAAALPPRRAGRGSLEAGIRARRVSTSWSPVGAAFNVKPQGSRLDLFGERRGLFGVPELSAPEGFHIAQEKALRKTELLVDRACSTPPGPQTVLIFDELSDSLCRVADLADFVKIAHPEPAFREAAEEACRSIGTMVEKLNTNVDLYQSLQKLLADKKLVDSLDPETRRVAELFMFDFEISGIHLDKEKRKRAVDLNVKILDLSSTFLMGTNFPNKIEKHLLPEHIRRNFTSAGDHIIIDGLHAESPDDLVREAAYKIFLYPNAGQLKCLEELLSSRDLLAKLVGYSTFSHRALQGTIAKNPETVMQFLEKLSDKLSERTLKDFEMIRGMKMKLNPQNSEVMPWDPPYYSGVIRAERYNIEPSLYCPFFSLGACMEGLNILLNRLLGISLYAEQPAKGEVWSEDVRKLAVVHESEGLLGYIYCDFFQRADKPHQDCHFTIRGGRLKEDGDYQLPVVVLMLNLPRSSRSSPTLLTPSMMENLFHEMGHAMHSMLGRTRYQHVTGTRCPTDFAEVPSILMEYFANDYRVVNQFARHYQTGQPLPKNMVSRLCESKKVCAAADMQLQVFYATLDQIYHGKHPLRNSTTDILKETQEKFYGLPYVPNTAWQLRFSHLVGYGARYYSYLMSRAVASMVWKECFLQDPFNRAAGERYRREMLAHGGGREPMLMVEGMLQKCPSVDDFVSALVSDLDLDFETFLMDSE [MIPEP] | 51.2 °C | 50.4 °C | -0.0439 | -0.0647 | 0.154 | 0.0672
8 | MWRLPRALCVHAAKTSKLSGPWSRPAAFMSTLLINQPQYAWLKELGLREENEGVYNGSWGGRGEVITTYCPANNEPIARVRQASVADYEETVKKAREAWKIWADIPAPKRGEIVRQIGDALREKIQVLGSLVSLEMGKILVEGVGEVQEYVDICDYAVGLSRMIGGPILPSERSGHALIEQWNPVGLVGIITAFNFPVAVYGWNNAIAMICGNVCLWKGAPTTSLISVAVTKIIAKVLEDNKLPGAICSLTCGGADIGTAMAKDERVNLLSFTGSTQVGKQVGLMVQERFGRSLLELGGNNAIIAFEDADLSLVVPSALFAAVGTAGQRCTTARRLFIHESIHDEVVNRLKKAYAQIRVGNPWDPNVLYGPLHTKQAVSMFLGAVEEAKKEGGTVVYGGKVMDRPGNYVEPTIVTGLGHDASIAHTETFAPILYVFKFKNEEEVFAWNNEVKQGLSSSIFTKDLGRIFRWLGPKGSDCGIVNVNIPTSGAEIGGAFGGEKHTGGGRESGSDAWKQYMRRSTCTINYSKDLPLAQGIKFQ [ALDH7A1] | 54.3 °C | 54 °C | 0.167 | -0.107 | -0.224 | -1.8
9 | RHOG | 55.9 °C | 55.2 °C | 0.562 | -0.00567 | -1.81 | -2.65
10 | MGSSATEIEELENTTFKYLTGEQTEKMWQRLKGILRCLVKQLERGDVNVVDLKKNIEYAASVLEAVYIDETRRLLDTEDELSDIQTDSVPSEVRDWLASTFTRKMGMTKKKPEEKPKFRSIVHAVQAGIFVERMYRKTYHMVGLAYPAAVIVTLKDVDKWSFDVFALNEASGEHSLKFMIYELFTRYDLINRFKIPVSCLITFAEALEVGYSKYKNPYHNLIHAADVTQTVHYIMLHTGIMHWLTELEILAMVFAAAIHDYEHTGTTNNFHIQTRSDVAILYNDRSVLENHHVSAAYRLMQEEEMNILINLSKDDWRDLRNLVIEMVLSTDMSGHFQQIKNIRNSLQQPEGIDRAKTMSLILHAADISHPAKSWKLHYRWTMALMEEFFLQGDKEAELGLPFSPLCDRKSTMVAQSQIGFIDFIVEPTFSLLTDSTEKIVIPLIEEASKAETSSYVASSSTTIVGLHIADALRRSNTKGSMSDGSYSPDYSLAAVDLKSFKNNLVDIIQQNKERWKELAAQEARTSSQKCEFIHQ [PDE1A] | 55.2 °C | 54.1 °C | -0.162 | -0.0985 | 1.43 | 2.27
11 | MAETYDFLFKFLVIGSAGTGKSCLLHQFIENKFKQDSNHTIGVEFGSRVVNVGGKTVKLQIWDTAGQERFRSVTRSYYRGAAGALLVYDITSRETYNSLAAWLTDARTLASPNIVVILCGNKKDLDPEREVTFLEASRFAQENELMFLETSALTGENVEEAFLKCARTILNKIDSGELDPERMGSGIQYGDASLRQLRQPRSAQAVAPQPCGC [RAB4B] | 56.8 °C | 57.9 °C | 0.181 | -0.29 | -1.18 | -2.73
12 | MPMWAGGVGSPRRGMAPASTDDLFARKLRQPARPPLTPHTFEPRPVRGPLLRSGSDAGEARPPTPASPRARAHSHEEASRPAATSTRLFTDPLALLGLPAEEPEPAFPPVLEPRWFAHYDVQSLLFDWAPRSQGMGSHSEASSGTLASAEDQAASSDLLHGAPGFVCELGGEGELGLGGPASPPVPPALPNAAVSILEEPQNRTSAYSLEHADLGAGYYRKYFYGKEHQNFFGMDESLGPVAVSLRREEKEGSGGGTLHSYRVIVRTTQLRTLRGTISEDALPPGPPRGLSPRKLLEHVAPQLSPSCLRLGSASPKVPRTLLTLDEQVLSFQRKVGILYCRAGQGSEEEMYNNQEAGPAFMQFLTLLGDVVRLKGFESYRAQLDTKTDSTGTHSLYTTYQDHEIMFHVSTMLPYTPNNQQQLLRKRHIGNDIVTIVFQEPGSKPFCPTTIRSHFQHVFLVVRAHTPCTPHTTYRVAVSRTQDTPAFGPALPAGGGPFAANADFRAFLLAKALNGEQAAGHARQFHAMATRTRQQYLQDLATNEVTTTSLDSASRFGLPSLGGRRRAAPRGPGAELQAAGSLVWGVRAAPGARVAAGAQASGPEGIEVPCLLGISAEALVLVAPRDGRVVFNCACRDVLAWTFSEQQLDLYHGRGEAITLRFDGSPGQAVGEVVARLQLVSRGCETRELALPRDGQGRLGFEVDAEGFVTHVERFTFAETAGLRPGARLLRVCGQTLPSLRPEAAAQLLRSAPKVCVTVLPPDESGRPRRSFSELYTLSLQEPSRRGAPDPVQDEVQGVTLLPTTKQLLHLCLQDGGSPPGPGDLAEERTEFLHSQNSLSPRSSLSDEAPVLPNTTPDLLLATTAKPSVPSADSETPLTQDRPGSPSGSEDKGNPAPELRASFLPRTLSLRNSISRIMSEAGSGTLEDEWQAISEIASTCNTILESLSREGQPIPESGDPKGTPKSDAEPEPGNLSEKVSHLESMLRKLQEDLQKEKADRAALEEEVRSLRHNNRRLQAESESAATRLLLASKQLGSPTADLA [SIPA1] | 50.8 °C | 51.4 °C | -0.217 | 0.0512 | 1.19 | 0.467
